Reference: patent US20170165335A1 (IMMATICS BIOTECHNOLOGIES, published 2017)

Target: T1, peptide-receptive MHC class I molecule (HLA-A*02:01 with beta-2-microglobulin) of the UV-ligand exchange assay (human)
Assay: UV-ligand exchange + anti-b2m ELISA; peptide exchange yield grade (+ = <20%)
Source text: (§1) Candidate peptides for T cell based therapies according to the present invention were further tested for their MHC binding capacity (affinity). The individual peptide-MHC complexes were produced by UV-ligand exchange, where a UV-sensitive peptide is cleaved upon UV-irradiation, and exchanged with the peptide of interest as analyzed. Only peptide candidates that can effectively bind and stabilize the peptide-receptive MHC molecules prevent dissociation of the MHC complexes. To determine the yield of the exchange reaction, an ELISA was performed based on the detection of the light chain (β2m) of stabilized MHC complexes. The assay was performed as generally described in Rodenko et al. (Rodenko et al., 2006).
(§2) 96 well MAXISorp plates (NUNC) were coated over night with 2 ug/ml streptavidin in PBS at room temperature, washed 4× and blocked for 1 h at 37° C. in 2% BSA containing blocking buffer. Refolded HLA-A*02:01/MLA-001 monomers served as standards, covering the range of 15-500 ng/ml. Peptide-MHC monomers of the UV-exchange reaction were diluted 100 fold in blocking buffer. Samples were incubated for 1 h at 37° C., washed four times, incubated with 2 ug/ml HRP conjugated anti-β2m for 1 h at 37° C., washed again and detected with TMB solution that is stopped with […]. Absorption was measured at 450 nm. Candidate peptides that show a high exchange yield (preferably higher than 50%, most preferred higher than 75%) are generally preferred for a generation and production of antibodies or fragments thereof, and/or T cell receptors or fragments thereof, as they show sufficient avidity to the MHC molecules and prevent dissociation of the MHC complexes.

peptide exchange yield	Binder
< 20%	NLKGTFATL (synthetic peptide)
< 20%	SLAAAAGKQELA (synthetic peptide)
< 20%	SSFGGLGGGSV (synthetic peptide)

Target: T1, peptide-receptive MHC class I molecule …
Assay: UV-ligand exchange + anti-b2m ELISA; peptide exchange yield grade (+++ = 50%-75%)
Source text: as §1, §2

peptide exchange yield	Binder
50 to 75%	FVSEIVDTV (synthetic peptide)
50 to 75%	KMFFLIDKV (synthetic peptide)
50 to 75%	FLQEYLDAI (synthetic peptide)
50 to 75%	ALAAILTRL (synthetic peptide)
50 to 75%	FLLDGSEGV (synthetic peptide)

Second part, the binder before the results:

Binder	peptide exchange yield
ALLTFMEQV (synthetic peptide)	50 to 75%
FLVSNMLLAEA (synthetic peptide)	50 to 75%
NLVEKTPALV (synthetic peptide)	50 to 75%
FLYKIIDEL (synthetic peptide)	50 to 75%
GLLDYATGAIGSV (synthetic peptide)	50 to 75%
LLVDDSFLHTV (synthetic peptide)	50 to 75%
ALLSGLREA (synthetic peptide)	50 to 75%
GLAAFKAFL (synthetic peptide)	50 to 75%

Target: T1, peptide-receptive MHC class I molecule …
Assay: UV-ligand exchange + anti-b2m ELISA; peptide exchange yield grade (++++ = >=75%)
Source text: as §1, §2

peptide exchange yield	Binder
≥ 75%	KMDASLGNLFA (synthetic peptide)
≥ 75%	MLMPVHFLL (synthetic peptide)
≥ 75%	FLGKVVIDV (synthetic peptide)

Target: T1, peptide-receptive MHC class I molecule …
Assay: UV-ligand exchange + anti-b2m ELISA; peptide exchange yield grade (++ = 20%-49%)
Source text: as §1, §2

peptide exchange yield	Binder
20 to 49%	TLLSNLEEA (synthetic peptide)
20 to 49%	IVDDLTINL (synthetic peptide)
20 to 49%	VLISLKQAPLV (synthetic peptide)
20 to 49%	VLLSEIEVA (synthetic peptide)
20 to 49%	FLVDGSSAL (synthetic peptide)
20 to 49%	SLANNVTSV (synthetic peptide)
20 to 49%	ALTQTGGPHV (synthetic peptide)
20 to 49%	SLAAAAGKQEL (synthetic peptide)
20 to 49%	SLSAFTLFL (synthetic peptide)
20 to 49%	YLEEDVYQL (synthetic peptide)
20 to 49%	SLKEEVGEEAIV (synthetic peptide)
20 to 49%	FILDSAETTTL (synthetic peptide)
20 to 49%	FLFDGSANLV (synthetic peptide)
20 to 49%	FLKSGDAAIV (synthetic peptide)

More lines, now with the values behind:

Binder	peptide exchange yield
VVDEGPTGV (synthetic peptide)	20 to 49%
SLDSRLELA (synthetic peptide)	20 to 49%
HLMDQPLSV (synthetic peptide)	20 to 49%
KLVDKSTEL (synthetic peptide)	20 to 49%
TLDGAAVNQV (synthetic peptide)	20 to 49%
SVDVSPPKV (synthetic peptide)	20 to 49%
SLKEEVGEEAI (synthetic peptide)	20 to 49%
YLYDSETKNA (synthetic peptide)	20 to 49%
RMVEEIGVEL (synthetic peptide)	20 to 49%
ALMLQGVDL (synthetic peptide)	20 to 49%
LLAGQTYHV (synthetic peptide)	20 to 49%
FLAQQESEI (synthetic peptide)	20 to 49%
GLLKKINSV (synthetic peptide)	20 to 49%
YLQGQRLDNVV (synthetic peptide)	20 to 49%
RLAGDGVGAV (synthetic peptide)	20 to 49%
KLFNLSKEDDV (synthetic peptide)	20 to 49%
GLLEELVTV (synthetic peptide)	20 to 49%
APVNVTTEVKSV (synthetic peptide)	20 to 49%
SLLDDELMSL (synthetic peptide)	20 to 49%
YLDAMMNEA (synthetic peptide)	20 to 49%
YLQGQRLDNV (synthetic peptide)	20 to 49%
AQQESEIAGI (synthetic peptide)	20 to 49%
SLQEEHVAVA (synthetic peptide)	20 to 49%
TFAPVNVTTEVKSV (synthetic peptide)	20 to 49%
VLLDKIKNLQV (synthetic peptide)	20 to 49%
RLDQRVPQI (synthetic peptide)	20 to 49%
VMDSGDGVTHTV (synthetic peptide)	20 to 49%
VLAKPGVISV (synthetic peptide)	20 to 49%
